Measurements from article PMC5422739.

B1: histidine tagged HTE20 (domain or fragment)
chain: GIPGAAVPGVVSPEAAAKAAAKAAKYGARPGVGVGGIPTYGVGAGGFPGFGVGVG
B2: HTE20 (20th exon of human tropoelastin) (domain or fragment)
chain: B1 chain

Key:
[1] = target: LigA on the surface of L. biflexa serovar Patoc ligA
[2] = target: tag free LigB12 (amino acids 1,047–1,119 in LigB) (L. interrogans serovar Pomona); test: SPR; Biacore 3000; tag free LigB12 immobilised on CM5 (about 1,000 RU); HTE truncates 0 to 5 μM injected in PBS at 30 μL/min, 25°C; 1:1 Langmuir model
[3] = target: GST tagged LigB12 (amino acids 1,047–1,119 in LigB) (L. interrogans serovar Pomona); test: ELISA; competitive; 5 μM GST-LigB4 or GST-LigB12 pre-incubated 1 h with HTE17-20, HTE20N or HTE20C (10 to 0.156 μM), then added to WI-38 cell monolayers at 37°C; HRP anti-GST
[4] = target: GST tagged LigB4 (amino acids 307–403 in LigB) (L. interrogans serovar Pomona); test: as above
[5] = target: tag free LigB12 (amino acids 1,047–1,119 in LigB) (L. interrogans serovar Pomona); test: other fluorescence titration; intrinsic tryptophan fluorescence of LigB12 (2 μM), excitation 295 nm, read at 315 nm, 25°C, PBS; HTE20 or HTE20N titrated 10 to 0.625 μM
[6] = target: tag-free LigB12 mutant F1054A (L. interrogans serovar Pomona); test: ELISA; tag-free LigB12 wild type or point mutants coated (1 μM/well); His tagged HTE20 or HTE20N titrated 0 to 10 μM; anti-His detection
[7] = target: tag-free LigB12 mutant D1066A (L. interrogans serovar Pomona); test: as above
[8] = target: tag-free LigB12 mutant E1088A (L. interrogans serovar Pomona); test: as above
[9] = target: tag-free LigB12 mutant D1061N (L. interrogans serovar Pomona); test: as above
[10] = target: LigB12-12-5 chimera (L. interrogans serovar Pomona); test: ELISA; tag-free LigB5/LigB12 and LigB7/LigB10 chimeras and wild-type domains coated (1 μM/well); 5 μM histidine tagged HTE17-20, HTE20 or HTE20N applied; anti-His detection
[11] = target: LigB12-5-12 chimera (L. interrogans serovar Pomona); test: as above

Row | Binder | inhibition of the adhesion of LigA-expressing L. biflexa (Patoc ligA) to WI-38 cells after pre-incubation with HTE20N, 10 to 0.156 μM; ELISA with hamster anti-L. biflexa sera [1] | Kd [2] | koff [2] | kon [2] | percent decrease of LigB12 binding to WI-38 cells at the highest concentration [3] | percent decrease of LigB4 binding to WI-38 cells at the highest concentration [4] | Kd [5] | percent of wild-type LigB12 binding [6] | percent of wild-type LigB12 binding [7] | Kd [8] | percent of wild-type LigB12 binding [9] | percent of wild-type LigB12 binding [10] | percent of wild-type LigB12 binding [11]
1 | GIPGAAVPGVVSPEAAAKAAAKAAKYG (domain or fragment) [HTE20N (the first 27 residues of HTE20, amino acids 358–384 of HTE)] | 58% | 780 nM | 0.0021 s⁻¹ | 2700 M⁻¹ s⁻¹ | 51% | 54% | 820 nM |  |  |  |  |  | 
2 | B1 |  |  |  |  |  |  |  | 15% | 26% | 870 nM | 32% | 90% | 80%
3 | B2 |  | 940 nM | 0.0032 s⁻¹ | 3400 M⁻¹ s⁻¹ |  |  | 970 nM |  |  |  |  |  | 
4 | GIPGAAVPGVVSPEAAAKAAAKAAKYG (domain or fragment) [histidine tagged HTE20N] |  |  |  |  |  |  |  | 15% | 26% | 870 nM | 32% | 90% | 80%
